# The DeepSol protein solubility set
# Assay: soluble on expression in E. coli; label from the status in PepcDB or PDB records
row,Sequence,soluble on expression in E. coli
1,MGHHHHHHSHMAVEDEGLRVFQSVKIKIGEAKNLPSYPGPSKMRDCYCTVNLDQEEVFRTKIVEKSLCPFYGEDFYCEIPRSFRHLSFYIFDRDVFRRDSIIGKVAIQKEDLQKYHNRDTWFQLQHVDADSEVQGKVHLELRLSEVITDTGVVCHKLATRIVECQGLPIVNGQCDPYATVTLAGPFRSEAKKTKV,not soluble
2,MSLEEINKIEVIEKSIEENTEKYEIKVKYPSIQGGEKEVTDKINKTIEDYTLNWINDIKLLGEEYSKEYEKAGKEMPKMEAYSLFEAFNTDEVISLPVSYYQYTGGAHGLTTKVSYNYNLKTGKELKLKDLFKEGFDYKSIIDKKVRGDIEKEKELYFDNGALFKGVNENQAYYLNRDGIIVYFQQYEIAPYSSGIREFKIPYGELKEGLIYKLGNEGHHHHHH,soluble
3,MASVALALWERVLANVVPRQSIAVIGAGVSGLSAAWLLSHRHDVTLYEADNRLGGHANTIIAEGVAVDTGFIVYNEPNYPNLTALFRHIGVETTETDMSFGVSLDGGALEYSSTKLLAQKRNVANPRFIKMLLDVVRFYREGRNIPADLEQGGLCRLDDYLRRQGFGRAFQEDHLLPQAAAIWSASMRDIREFPAAALLRFFDNHGLMLPIDKRPIWRTVVGGSARYVEKLAAGVSGPILTGRPVKAIHRGPDGVRIEDATGETRAFDHVVIGAHADQALSMLAAPSAEERELLGAFRYSRNRAVLHSDPALMPRRRGAWASWNHVGRRGEDGEGGVTYWMNILQPLGVERPYFLSLNPMQDPAGLMHDQVYEHPLFDGPAMLAQRRLWSLQGRRRTWFCGAYFGSGFHEDGLQAGLAVAEQLGGVRRPWLVPNPSGRIVLDVADQAADRELVALEHHHHHH,not soluble
4,KLEGAFAKGTNVLMADGSIECIENIEVGNKVMGKDGRPREVIKLPRGRETMYSVVQKSQHRAHKSDSSREVPELLKFTCNATHELVVRTPRSVRRLSRTIKGVEYFEVITFEMGQKKAPDGRIVELVKEVSKSYPISEGPERANELVESYRKASNKAYFEWTIEARDLSLLGSHVRKATYQTYAPILYENDHFFDYMQKSKFHLTIEGPKVLAYLLGLWIGDGLSDRATFSVDSRDTSLMERVTEYAEKLNLCAEYKDRKEPQVAKTVNLYSKVVRGNGIRNNLNTENPLWDAIVGLGFLKDGVKNIPSFLSTDNIGTRETFLAGLIDSDGYVTDEHGIKATIKTIHTSVRDGLVSLARSLGLVVSVNAEPAKVDMNGTKHKISYAIYMSGGDVLLNVLSKCAGSKKFRPAPAAAFARECRGFYFELQELKEDDYYGITLSDDSDHQFLLANQVVVHACGER,soluble
5,KPMKILLANPRGFCAGVDRAISIVERALELYQPPIYVRHEVVHNRFVVEGLKQRGARFVEELNEVPDDNIVIFSAHGVSQAVRQEAKERSLTVFDATCPLVTKVHMEVARASRKHMEVVLIGHAGHPEVEGTMGQYASDTGGMYLVEKPEDVVSLQAKVKDPSNLHYVSQTTLSVDETADVIDELRRVFPKIQGPRKDDICYATQNRQDAVRILAEQVDVMVVVGSKNSSNSTRLKELAEKLGTPGYLIDCPQDIDPEWFVDAQLIGVTAGASAPEELVNQILDRIKELGAT,not soluble
6,MKIRIFVPQNKFMNREMLYNDLSGFLAMHFPCKVQKISINAGFTCPNRDGSVGYGGCTYCNNQTFNPAYCHTGKSVAQQLEEGKRFFVRKYPEMKYLAYFQAYTNTYGELEELKRKYEEALMVEDVVGLVIGTRPDCMPISLLDYLEDLGKRTFVLVEYGIESTDDETLRRINRGHTFAVSAEAVRKTAERGILVGGHIILGLPGEEREMLIRQAGVLSQLPLTTLKLHQLQLIKGTRMASEYVKEPEAFHLYTADEYVDLVIDYIEHLRPDIVLERFVSQSPKELLIAPDWGLKNYEFTDKVKKRMREKDAWQGKYYKY,not soluble
7,MVSLEKNDHLMLARQLPLKSVALILAGGRGTRLKDLTNKRAKPAVHFGGKFRIIDFALSNCINSGIRRMGVITQYQSHTLVQHIQRGWSFFNEEMNEFVDLLPAQQRMKGENWYRGTADAVTQNLDIIRRYKAEYVVILAGDHIYKQDYSRMLIDHVEKGARCTVACMPVPIEEASAFGVMAVDENDKIIEFVEKPANPPSMPNDPSKSLASMGIYVFDADYLYELLEEDDRDENSSHDFGKDLIPKITEAGLAYAHPFPLSCVQSDPDAEPYWRDVGTLEAYWKANLDLASVVPELDMYDRNWPIRTYNESLPPAKFVQDRSGSHGMTLNSLVSGGCVISGSVVVQSVLFSRVRVNSFCNIDSAVLLPEVWVGRSCRLRRCVIDRACVIPEGMVIGENAEEDARRFYRSEEGIVLVTREMLRKLGHKQER,not soluble
8,ISNKHFEQAIERVVAGMEKKTQVLQKEEKKTVAYHEAGHAIAGWFLQHADPLLKVSIIPRGKGLGYAQYLPKEQYLYSKDQLLDRMCMTLGGRVAEEIFFGRITTGAQDDLQKVTQMAYSQVVKFGMSEKVGPLSFETPAPGEMAFDKPYSEATAQLIDQEQFADLPEILDSGNLPICRKFSIPAICRFAGNFQFRQFANLPNCRKFSIPTICQFAGNFNFQKIADLPEKIVRDLVMNALRRTRDLLLEKRSDIERVALRLLEKEILNREDMIEL,not soluble
9,MGHHHHHHSHMGLQQEISLQPWCHHPAESCQTTTDMTERLSAEQIKEYKGVFEMFDEEGNGEVKTGELEWLMSLLGINPTKSELASMAKDVDRDNKGFFNCDGFLALMGVYHEKAQNQESELRAAFRVFDKEGKGYIDWNTLKYVLMNAGEPLNEVEAEQMMKEADKDGDRTIDYEEFVAMMTGESFKLIQ,soluble
10,GPHMASMLEAKFEEASLFKRIIDGFKDCVQLVNFQCKEDGIIAQAVDDSRVLLVSLEIGVEAFQEYRCDHPVTLGMDLTSLSKILRCGNNTDTLTLIADNTPDSIILLFEDTKKDRIAEYSLKLMDIDADFLKIEELQYDSTLSLPSSEFSKIVRDLSQLSDSINIMITKETIKFVADGDIGSGSVIIKPFVDMEHPETSIKLEMDQPVDLTFGAKYLLDIIKGSSLSDRVGIRLSSEAPALFQFDLKSGFLQFFLAPKFNDEGSNSQSNGSGALEAKFEEASLFKRIIDGFKDCVQLVNFQCKEDGIIAQAVDDSRVLLVSLEIGVEAFQEYRCDHPVTLGMDLTSLSKILRCGNNTDTLTLIADNTPDSIILLFEDTKKDRIAEYSLKLMDIDADFLKIEELQYDSTLSLPSSEFSKIVRDLSQLSDSINIMITKETIKFVADGDIGSGSVIIKPFVDMEHPETSIKLEMDQPVDLTFGAKYLLDIIKGSSLSDRVGIRLSSEAPALFQFDLKSGFLQFFLAPKFNDEGSNSQASNSGALEAKFEEASLFKRIIDGFKDCVQLVNFQCKEDGIIAQAVDDSRVLLVSLEIGVEAFQEYRCDHPVTLGMDLTSLSKILRCGNNTDTLTLIADNTPDSIILLFEDTKKDRIAEYSLKLMDIDADFLKIEELQYDSTLSLPSSEFSKIVRDLSQLSDSINIMITKETIKFVADGDIGSGSVIIKPFVDMEHPETSIKLEMDQPVDLTFGAKYLLDIIKGSSLSDRVGIRLSSEAPALFQFDLKSGFLQFFLAPKFNDEE,soluble
11,MSEEGFMLAVLKGIPLIQDIRAEGNSRSWIMTIDGHPARGEIFSEAFSISLFLNDLESLPKPCLAYVTLLLAAHPDVHDYAIQLTADGGWLNGYYTTSSSSELIAIEIEKHLALTCILKNVIRNHHKLYSGGV,not soluble
12,MGSDKIHHHHHHMPSSVCGDPMMCQNCKKSVPNAIFHVYHRRGFHYPAQKCEENFILFLIKGEMLVNSREYAGTMLKAGEFMLQPISSKIEMLAMTDVECIYYQFNQPELFCDIRYNRIMKETDPPLIPSPLPIIPELQHFLESARTYLSEKKICRDLLSLKRKELAFILGYFYSDYDLASLVHPLSKYASSFECFVYQNYKKVKTVEEFAKLGGYSQTTFRRIFDNVFHEPVYEWMLSRRKEEIIYELQNTEATISEICYKFGFESLPHFSNFCKKSFGTSPRSIRLKRSSE,not soluble
13,AGHMTSILSRNHVKVKGSGKASIMFAPGFGCDQSVWNAVAPAFEEDHRVILFDYVGSGHSDLRAYDLNRYQTLDGYAQDVLDVCEALDLKETVFVGHSVGALIGMLASIRRPELFSHLVMVGPSPCYLNDPPEYYGGFEEEQLLGLLEMMEKNYIGWATVFAATVLNQPDRPEIKEELESRFCSTDPVIARQFAKAAFFSDHREDLSKVTVPSLILQCADDIIAPATVGKYMHQHLPYSSLKQMEARGHCPHMSHPDETIQLIGDYLKAHV,soluble
